The record followed here is patent US7410774B1, “Compounds modulating sister chromatid separation and method for identifying same” (Boehringer Ingelheim International GmbH, priority 1999, dated 2008).

The subject of data set [1] is HeLa cells. The experiment in a line: SCC1 cleavage and securin degradation in synchronized HeLa cells released into the cell cycle in the presence of nocodazole. The class given is cell-based, human. The settings on record: double-thymidine synchronized, immunoblot. The procedure: For cell cycle synchronization, a double-thymidine treatment was used. HeLa cells were first treated with 2 mM thymidine for 18 h. Subsequently, cells were washed with PBS, fresh medium was added and the cells were grown for another 8 h. Then the cells were treated again with 2 mM thymidine for 18 h, subsequently washed and incubated in fresh medium. Samples were taken at different time points. Samples were splitted and used for FACscan analysis and for immunoblotting. Cell extracts were made with glass-teflon potters in ice cold buffer containing 50 mM Tris pH 7.7, 100 mM NaCl, 20 mM b-glycerophosphate, 5 mM MgCl2, 1 mM NaF, 0.1-0.2% Triton X-100, 10% Glycerol, 1 mM DTT and protease inhibitors).
In some experiments logarithmically growing HeLa cells were treated with 330 nM nocodazole dissolved in 0.1% DMSO for 18 hours, or cells synchronized by double-thymidine treatment were released into nocodazole-containing medium for different periods of time. […]
HeLa cells stably expressing SCC1-myc were synchronized by double-thymidine treatment and were released into the cell cycle in the presence of either DMSO (results shown in FIGS. 11A and C) or nocodazole dissolved in DMSO (results shown in FIGS. 11B and D). […] Cells were analyzed by FACsan (FIGS. 11A and B) and by immunoblotting of whole cell extracts using the indicated antibodies (FIGS. 11C and D). […]
A general note: In western blotting, separated proteins are transferred to a membrane and probed.

For data set [2], the system named is HeLa cells. Briefly: Association of human SCC1 with chromatin (quantitative immunoblotting of chromatin and supernatant fractions). Particulars: HeLa cells arrested in metaphase by nocodazole (56% in logarithmically growing cells). The class given is cell-based. The procedure: In some experiments logarithmically growing HeLa cells were treated with 330 nM nocodazole dissolved in 0.1% DMSO for 18 hours, or cells synchronized by double-thymidine treatment were released into nocodazole-containing medium for different periods of time. In control experiments 0.1% DMSO was added without nocodazole. Chromatin and supernatant fractions were prepared from HeLa cells that were either growing logarithmically (log) or were arrested in metaphase with nocodazole (noc). Proteins from equivalent aliquots of these fractions were separated by SDS-PAGE and analyzed for the presence of SCC1 by immunoblotting using radiolabeled antibodies (FIG. 8, top panel), The intensities of the SCC1 bands were quantitated (FIG. 8, bottom panel).

Data set [3] addresses T1, Purified recombinant Scc1 with C-terminal FLAG epitope, from okadaic acid treated insect cells, mitotically phosphorylated form, Q12158.
T1 chain: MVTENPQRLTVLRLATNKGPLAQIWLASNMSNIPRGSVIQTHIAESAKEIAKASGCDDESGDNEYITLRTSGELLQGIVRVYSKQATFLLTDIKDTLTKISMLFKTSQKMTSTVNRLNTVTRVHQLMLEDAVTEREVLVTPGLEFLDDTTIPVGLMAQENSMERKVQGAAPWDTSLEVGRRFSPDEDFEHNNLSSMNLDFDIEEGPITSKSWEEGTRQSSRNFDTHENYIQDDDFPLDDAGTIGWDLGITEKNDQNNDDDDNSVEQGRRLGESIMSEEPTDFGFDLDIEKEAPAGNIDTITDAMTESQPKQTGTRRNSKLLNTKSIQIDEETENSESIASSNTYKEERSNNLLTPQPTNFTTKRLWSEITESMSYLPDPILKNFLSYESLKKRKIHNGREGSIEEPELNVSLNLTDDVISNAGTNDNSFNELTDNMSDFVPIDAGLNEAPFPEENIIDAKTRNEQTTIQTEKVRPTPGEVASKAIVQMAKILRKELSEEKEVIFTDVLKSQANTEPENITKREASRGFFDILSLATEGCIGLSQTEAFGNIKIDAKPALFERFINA

For data set [4], the target named is T2, Scc1p tagged with myc epitopes at the C-terminus (endogenous wild type), Q12158.
T2 chain: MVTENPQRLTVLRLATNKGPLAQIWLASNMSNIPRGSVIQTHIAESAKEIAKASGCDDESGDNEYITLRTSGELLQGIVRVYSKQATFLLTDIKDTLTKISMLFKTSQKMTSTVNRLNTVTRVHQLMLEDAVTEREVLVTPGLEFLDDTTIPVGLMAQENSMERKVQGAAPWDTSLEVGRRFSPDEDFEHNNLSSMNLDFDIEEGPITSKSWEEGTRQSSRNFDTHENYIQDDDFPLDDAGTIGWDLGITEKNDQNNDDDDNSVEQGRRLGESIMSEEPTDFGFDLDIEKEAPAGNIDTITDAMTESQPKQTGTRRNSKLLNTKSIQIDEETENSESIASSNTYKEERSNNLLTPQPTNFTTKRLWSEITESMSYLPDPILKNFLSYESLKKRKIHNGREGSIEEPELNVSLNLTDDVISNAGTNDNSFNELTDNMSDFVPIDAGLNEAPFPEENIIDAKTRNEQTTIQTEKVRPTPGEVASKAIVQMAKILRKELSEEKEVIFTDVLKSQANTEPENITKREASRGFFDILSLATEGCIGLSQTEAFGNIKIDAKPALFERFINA

Data set [5] addresses T3, Scc1p tagged with multiple HA epitopes, chromatin-bound (chromatin of nocodazole-arrested yeast), Q12158.
T3 chain: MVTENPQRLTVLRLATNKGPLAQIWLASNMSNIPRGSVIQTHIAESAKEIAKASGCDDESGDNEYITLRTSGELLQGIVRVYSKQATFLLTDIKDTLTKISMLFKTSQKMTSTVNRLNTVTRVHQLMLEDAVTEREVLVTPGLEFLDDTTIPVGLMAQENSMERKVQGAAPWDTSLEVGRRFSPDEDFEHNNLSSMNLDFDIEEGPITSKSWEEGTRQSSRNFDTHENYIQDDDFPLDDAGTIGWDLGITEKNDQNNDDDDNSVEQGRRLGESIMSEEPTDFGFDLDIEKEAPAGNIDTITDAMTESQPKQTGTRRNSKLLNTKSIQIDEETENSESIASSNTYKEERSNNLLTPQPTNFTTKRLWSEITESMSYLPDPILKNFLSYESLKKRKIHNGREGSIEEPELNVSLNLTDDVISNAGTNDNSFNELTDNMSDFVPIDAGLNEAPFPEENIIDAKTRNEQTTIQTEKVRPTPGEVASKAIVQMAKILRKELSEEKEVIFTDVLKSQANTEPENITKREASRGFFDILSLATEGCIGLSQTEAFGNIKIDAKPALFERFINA

For data set [6], the target named is T4, Scc1p with arginine 268 mutated to aspartic acid, HA tagged, Q12158.
T4 chain: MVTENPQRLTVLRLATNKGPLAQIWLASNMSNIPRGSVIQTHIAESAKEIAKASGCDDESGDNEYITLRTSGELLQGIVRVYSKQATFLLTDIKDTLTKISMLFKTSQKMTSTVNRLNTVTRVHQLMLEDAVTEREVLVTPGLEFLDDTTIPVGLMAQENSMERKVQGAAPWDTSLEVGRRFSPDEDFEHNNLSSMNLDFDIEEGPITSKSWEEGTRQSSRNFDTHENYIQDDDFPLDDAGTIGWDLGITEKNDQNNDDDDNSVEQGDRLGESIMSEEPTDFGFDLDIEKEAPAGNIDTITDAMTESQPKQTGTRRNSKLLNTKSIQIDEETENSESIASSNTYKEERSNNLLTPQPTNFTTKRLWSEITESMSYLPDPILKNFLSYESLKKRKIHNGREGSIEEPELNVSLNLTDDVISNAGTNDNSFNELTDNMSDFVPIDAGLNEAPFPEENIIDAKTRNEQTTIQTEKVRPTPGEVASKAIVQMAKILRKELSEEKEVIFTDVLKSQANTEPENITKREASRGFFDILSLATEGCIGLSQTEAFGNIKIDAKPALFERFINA

Data set [7] concerns the target T5, Scc1p R180D R268D double mutant, HA tagged (non-cleavable Scc1p), Q12158.
T5 chain: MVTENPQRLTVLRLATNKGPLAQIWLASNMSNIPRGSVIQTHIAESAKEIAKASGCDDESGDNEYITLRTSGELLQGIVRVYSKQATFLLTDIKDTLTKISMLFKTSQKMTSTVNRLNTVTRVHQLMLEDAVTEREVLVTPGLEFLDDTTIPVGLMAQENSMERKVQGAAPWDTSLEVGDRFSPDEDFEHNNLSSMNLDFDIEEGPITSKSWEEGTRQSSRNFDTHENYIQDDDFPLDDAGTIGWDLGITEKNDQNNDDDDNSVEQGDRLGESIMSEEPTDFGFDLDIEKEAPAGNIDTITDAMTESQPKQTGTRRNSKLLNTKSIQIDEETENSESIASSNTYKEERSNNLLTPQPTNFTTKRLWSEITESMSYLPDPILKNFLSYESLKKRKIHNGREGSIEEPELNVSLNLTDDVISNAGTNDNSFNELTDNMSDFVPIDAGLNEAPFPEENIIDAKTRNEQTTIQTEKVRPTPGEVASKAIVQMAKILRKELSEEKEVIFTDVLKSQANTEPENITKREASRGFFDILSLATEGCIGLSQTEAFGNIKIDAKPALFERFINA

For data set [8], the target named is T6, Purified recombinant Scc1 with C-terminal FLAG epitope, from baculovirus-infected insect cells, unphosphorylated, Q12158.
T6 chain: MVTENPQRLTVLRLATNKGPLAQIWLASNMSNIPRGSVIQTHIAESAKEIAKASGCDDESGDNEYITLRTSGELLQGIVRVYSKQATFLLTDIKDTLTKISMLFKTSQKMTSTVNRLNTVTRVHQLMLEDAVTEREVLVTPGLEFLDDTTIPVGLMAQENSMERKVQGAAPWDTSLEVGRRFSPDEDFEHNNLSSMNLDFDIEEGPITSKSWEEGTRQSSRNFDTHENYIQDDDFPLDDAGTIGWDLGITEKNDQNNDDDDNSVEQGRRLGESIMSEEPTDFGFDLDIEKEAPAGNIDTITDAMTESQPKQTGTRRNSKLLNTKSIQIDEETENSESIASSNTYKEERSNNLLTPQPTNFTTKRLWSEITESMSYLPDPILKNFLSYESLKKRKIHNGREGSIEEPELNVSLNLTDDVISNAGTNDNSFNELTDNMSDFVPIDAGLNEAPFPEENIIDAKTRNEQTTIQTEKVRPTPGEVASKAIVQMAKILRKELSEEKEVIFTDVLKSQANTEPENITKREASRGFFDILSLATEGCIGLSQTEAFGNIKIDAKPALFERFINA

`COC(=O)Nc1nc2ccc(C(=O)c3cccs3)cc2[nH]1` [nocodazole]: in the data set with HeLa cells [1], the “cleavage of SCC1” value is listed as “no cleavage of SCC1 could be observed” and the securin degradation result is given as “not degraded”. The “amount of the total cellular SCC1 associated with chromatin” value in the data set on HeLa cells [2] was 13%.

B1: Esp1p (yeast separin), wild type, overproduced from the GAL1-10 promoter in yeast cell extract (protein)
chain: MMVKQEEPLNEISPNTPMTSKSYLLNDTLSKVHHSGQTRPLTSVLSGDASSNSIGILAMHNNIIRDFTKIASNNIDLAIEDITTVDHSLNSIYSLLKSHHMWGHINSTVKQHLMIIVKLINNNALGLASSEIIFLFNETNLFQAHSLKNILLADFSTWNDYYLSNLKILALQIILKRKLVDEYLPHILELFSHDKRYLLKDPNLKAHALTKIVLSFFSVTTSCKVLFGLKFLQYIKQFKLPFKKFISNITVECFSKNLLHKNYLEMGPNKIYLNSFYLSYSMLYDGLDKIMLLDILSYEETTEVQRAIKSKKEFNEYCNMSENRLLWSCISVDDLNVILENATNFLQNKGKHISATLKCLVCLWSTIRLEGLPKNKDILRQFDCTVIYINSNIKSINDESAAALLSELLGVLSEICIDYKEPKRLSNIISVLFNASVLFKSHSFLLKTANLEISNVLISNDSKTSHRTILKFEKFISSAQSAQKKIEIFSCLFNVYCMLRNDTLSFVFDFCQNAFIHCFTRLKITKFIEFSNSSEIMLSVLYGNSSIENIPSENWSQLSRMIFCSLRGIFDLDPLELNNTFDKLHLLNKYELLIRIVYLLNLDMSKHLTTNLSKITKLYINKWLQKSDEKAERISSFEMDFVKMLLCYLNFNNFDKLSIELSLCIKSKEKYYSSIVPYADNYLLEAYLSLYMIDDALMMKNQLQKTMNLSTAKIEQALLHASSLINVHLWDSDLTAFQIYFGKTLPAMKPELFDINNDHNLPMSLYIKVILLNIKIFNESAKLNIKAGNVISAVIDCRKAQNLALSLLKKKNKLSQGSRLALLKSLSFSFFQLIKIHIRIGSARDCEFYSKELSRIISDLEEPIIVYRCLHFLHRYYMITEQTCLQNITLGKANKAFDYLDAEADITSLTMFLYDNKEFVKLEQSLVLYFGDQLEKTFLPNLWKLHLGKDIDDSICLSEYMPKNVINRVHNMWQKVMSQLEEDPFFKGMFESTLGIPSSLPVIPSTMPNNILKTPSKHSTGLKLCDSPRSSSMTPRGKNIRQKFDRIAAISKLKQMKELLESLKLDTLDNHELSKISSLSSLTLTILSNITSIHNAESSLITNFSLTDLPRHMPLLFDKVLNNIDNKNYREFRVSSLIAPNNISTITESIRVSAAQKDLMESNLNINVITIDFCPITGNLLLSKLEPRRKRRTHLRLPLIRSNSRDLDEVHLSFPEATKKLLSIINESNQTTSVEVTNKIKTREERKSWWTTRYDLDKRMQQLLNNIENSWFNGVQGFFSPEVVDNSLFEKFKDKFYEILHQNLPSRKLYGNPAMFIKVEDWVIELFLKLNPQEIDFLSKMEDLIYFVLDILLFHGEENAYDEIDFSMLHVQLEEQIKKYRATMTTNSIFHTFLVVSSSCHLFPWECLSFLKDLSITRVPSYVCLNKLLSRFHYQLPLQVTIEDNISMILNPNGDLSRTESKFKGMFQKIIDAKPSSQLVMNEKPEEETLLKMLQNSNLFVYIGHGGGEQYVRSKEIKKCTKIAPSFLLGCSSAAMKYYGKLEPTGTIYTYLLGGCPMVLGNLWDVTDKDIDKFSEELFEKMGFRCNTDDLNGNSLSVSYAVSKSRGVCHLRYLNGAAPVIYGLPIKFVS
For the molecule B1, the “cleavage assay using purified Scc1 (Western blot, anti-FLAG)” value was “the efficiency of cleavage was much greater when Scc1 was in the mitotically phosphorylated state” in data set [3]; “Both unphosphorylated and phosphorylated purified Scc1 were cleaved in an Esp1-dependent manner in vitro” in data set [8]. Also, the “Scc1p cleavage in Esp1-containing extracts (chromatin substrate)” value in data set [4] is on record as “the myc tagged wild type protein was efficiently cleaved”; in data set [7], “HA tagged double mutant protein was no longer cleaved when incubated in Esp1-containing extracts”. The “Scc1p cleavage and dissociation from chromatin in vitro (Western blot of chromatin and supernatant fractions)” value in data set [5] is recorded as “most disappears from the chromatin fraction upon incubation with extracts containing high levels of wild type Esp1 protein”. Moreover, the “Scc1p cleavage in the Esp1 assay (chromatin substrate)” value in data set [6] is on record as “cleavage at site 268 was indeed eliminated by the aspartic acid mutation. However, the mutated protein was still cleaved in an Esp1-dependent manner”.
